Laboratory results taken from patent publication US20110165652A1, “COMPOSITIONS, METHODS AND SYSTEMS FOR SINGLE MOLECULE SEQUENCING” (LIFE TECHNOLOGIES CORPORATION, priority 2008, published 2011).

System: dATP-1-ROX
Assay: Primer extension by various polymerases with dATP-1-ROX or natural dATP
Format: biochemical
Conditions: dATP-1-ROX vs natural dATP, optimal temperature of each polymerase
Method: FIG. 6 depicts the results of experiments to assess the nucleotide incorporation efficiency of various DNA mutated and non-mutated polymerases (Sequenase; Thermo-Sequenase; wild-type Taq from Promega; HIV reverse transcriptase; and a mutant Taq polymerase comprising the mutation F647C) using both natural (unlabeled) dATP as well as the gamma-modified nucleotide dATP-1-Rox. Each reaction was conducted at the individual polymerase's optimal temperature with equimolar concentrations of enzymatically cleared gamma-labeled nucleotides and units of polymerase. […] Primer extension reactions were performed in the presence of the nucleotide dATP-1-ROX or natural dATP. The ‘Neg Control’ is a control lacking both polymerase and nucleotide. The extension products were size separated using denaturing gel electrophoresis, and visualized on a Bio-Rad fx Imager. Incorporation of the gamma-labeled nucleotide results in the production of a resolvable extension duplex that indicates incorporation of a single dATP. The non-extended primer is the lower band; extension products are more slowly migrating. […] FIG. 81 is a solid ribbon diagram generated in DS Viewer Pro of Taq DNA Polymerase.

B1: VTaq647C: engineered mutant Taq polymerase comprising the mutation F647C, SEQ. ID: 7 (protein, listed as Thermus aquaticus)
chain: ALEEAPWPPPEGAFVGFVLSRKEPMWADLLALAAARGGRVHRAPEPYKALRDLKEARGLLAKDLSVLALREGLGLPPGDDPMLLAYLLDPSNTTPEGVARRYGGEWTEEAGERAALSERLFANLWGRLEGEERLLWLYREVERPLSAVLAHMEATGVRLDVAYLRALSLEVAEEIARLEAEVFRLAGHPFNLNSRDQLERVLFDELGLPAIGKTEKTGKRSTSAAVLEALREAHPIVEKILQYRELTKLKSTYIDPLPDLIHPRTGRLHTRFNQTATATGRLSSSDPNLQNIPVRTPLGQRIRRAFIAEEGWLLVALDYSQIELRVLAHLSGDENLIRVFQEGRDIHTETASWMCGVPREAVDPLMRRAAKTINFGVLYGMSAHRLSQELAIPYEEAQAFIERYFQSFPKVRAWIEKTLEEGRRRGYVETLFGRRRYVPDLEARVKSVREAAERMAFNMPVQGTAADLMKLAMVKLFPRLEEMGARMLLQVHDELVLEAPKERAEAVARLAKEVMEGVYPLAVPLEVEVGIGEDWLSAKE
incorporation of gamma-labeled nucleotide: significantly improved incorporation
